Here are results for one substance from publication PMC9808565.

The target of the test is human ACE2 protein (hACE2), recombinant, His-tagged, Met1-Ser740 (human) (UniProt Q9BYF1). Kind of test: ITC.
UniProt Q9BYF1, sequence (Q9BYF1 18-740): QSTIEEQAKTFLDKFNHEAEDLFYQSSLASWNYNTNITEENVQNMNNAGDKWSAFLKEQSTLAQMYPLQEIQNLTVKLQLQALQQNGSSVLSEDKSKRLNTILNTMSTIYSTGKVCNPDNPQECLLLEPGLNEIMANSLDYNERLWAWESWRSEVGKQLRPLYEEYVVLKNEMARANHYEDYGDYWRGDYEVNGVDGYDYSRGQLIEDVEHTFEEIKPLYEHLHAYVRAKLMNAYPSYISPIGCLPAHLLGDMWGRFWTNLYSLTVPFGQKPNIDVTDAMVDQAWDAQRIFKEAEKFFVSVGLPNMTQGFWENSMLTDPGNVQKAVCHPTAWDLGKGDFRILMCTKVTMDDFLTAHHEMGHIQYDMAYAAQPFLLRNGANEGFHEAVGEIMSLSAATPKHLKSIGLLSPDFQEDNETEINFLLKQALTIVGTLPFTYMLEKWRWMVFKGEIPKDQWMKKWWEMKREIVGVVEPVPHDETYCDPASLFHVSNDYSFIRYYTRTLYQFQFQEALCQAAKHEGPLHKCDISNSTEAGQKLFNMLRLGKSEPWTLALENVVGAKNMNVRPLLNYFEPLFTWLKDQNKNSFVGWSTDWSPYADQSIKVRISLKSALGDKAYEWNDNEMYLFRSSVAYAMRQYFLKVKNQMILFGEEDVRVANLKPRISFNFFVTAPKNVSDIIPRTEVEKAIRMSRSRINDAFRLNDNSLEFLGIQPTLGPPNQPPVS

In general, Kd refers to the equilibrium constant for the complex coming apart. For orientation: stoichiometry N means the number of molecules, sites or subunits per partner or assembly. For “SARS-CoV-1 spike RBD (RBD^CoV1), Arg306-Phe527, His-tagged (domain or fragment)”, the Kd is 0.145 µM, the dH was -10.5 kcal/mol and the stoichiometry N is 1.03.
